B1: hC3Nb1Loop2ΔP (protein)
VHH: QVQLVETGGGLVQAGGSLRLSCAASGSIFSLNAMGWFRQASGGGSGCPPGYKSGVDCSPGSECKWGCYAVDGRRYGGYGADSGVSGGGSKEREFVATINRSGGRTYYADSVKGRFTISRDNGKNMVYLQMHSLKPEDTAIYYCAAGTGWSPQTDNEYNYWGQGTQVTVSS
modifications: left off: a dimerising Fc or GST
B2: hC3Nb1 C-Term (protein)
VHH: QVQLVETGGGLVQAGGSLRLSCAASGSIFSLNAMGWFRQAPGKEREFVATINRSGGRTYYADSVKGRFTISRDNGKNMVYLQMHSLKPEDTAIYYCAAGTGWSPQTDNEYNYWGQGTQVTVSSGGGSGCPPGYKSGVDCSPGSECKWGCYAVDGRRYGGYGADSGV
modifications: left off: a dimerising Fc or GST
B3: hC3Nb1 Loop 2 (protein)
VHH: QVQLVETGGGLVQAGGSLRLSCAASGSIFSLNAMGWFRQAPSGGGSGCPPGYKSGVDCSPGSECKWGCYAVDGRRYGGYGADSGVSGGGSKEREFVATINRSGGRTYYADSVKGRFTISRDNGKNMVYLQMHSLKPEDTAIYYCAAGTGWSPQTDNEYNYWGQGTQVTVSS
modifications: left off: a dimerising Fc or GST
B4: hC3Nb1 N-Term (protein)
VHH: TTVHQRTIKSGCPPGYKSGVDCSPGSECKWGCYAVDGRRYGGYGADSGVGSTYTHEFYVDAWGQGSSSSGSSSSGQVQLVETGGGLVQAGGSLRLSCAASGSIFSLNAMGWFRQAPGKEREFVATINRSGGRTYYADSVKGRFTISRDNGKNMVYLQMHSLKPEDTAIYYCAAGTGWSPQTDNEYNYWGQGTQVTVSS
modifications: left off: a dimerising Fc or GST
B5: hC3Nb1 Loop 3 (protein)
VHH: QVQLVETGGGLVQAGGSLRLSCAASGSIFSLNAMGWFRQAPGKEREFVATINRSGGRTYYADSVKGSGGGSGCPPGYKSGVDCSPGSECKWGCYAVDGRRYGGYGADSGVSGGGSRFTISRDNGKNMVYLQMHSLKPEDTAIYYCAAGTGWSPQTDNEYNYWGQGTQVTVSS
modifications: left off: a dimerising Fc or GST
B6: hC3nb1: camelid VHH which binds C3 and C3b, PDB code 6EHG (protein)
VHH: QVQLVETGGGLVQAGGSLRLSCAASGSIFSLNAMGWFRQAPGKEREFVATINRSGGRTYYADSVKGRFTISRDNGKNMVYLQMHSLKPEDTAIYYCAAGTGWSPQTDNEYNYWGQGTQVTVSS
modifications: left off: a dimerising Fc or GST
B7: hC3nb1-K149: hC3nb1 with K149 ultralong CDR-H3 inserted between H74 and H75, displayed on M13 phage (protein)
VHH: QVQLVETGGGLVQAGGSLRLSCAASGSIFSLNAMGWFRQAPGKEREFVATINRSGGRTYYADSVKGRFTISRDNGTSVLQSTKPQKSCPDGFSYRSWDDFCCPMVGRCLAPRNTYTTEFTIEAKNMVYLQMHSLKPEDTAIYYCAAGTGWSPQTDNEYNYWGQGTQVTVSS
modifications: left off: large carriers
B8: hC3nb1-K8: hC3nb1 with K8 ultralong CDR-H3 inserted between H74 and H75, displayed on M13 phage (protein)
VHH: QVQLVETGGGLVQAGGSLRLSCAASGSIFSLNAMGWFRQAPGKEREFVATINRSGGRTYYADSVKGRFTISRDNGTVQQKTHQVCPDGFNWGYGCAAGSSRFCTRHDWCCYDERADSHTYGFCTGNRVTNTYEFHADAKNMVYLQMHSLKPEDTAIYYCAAGTGWSPQTDNEYNYWGQGTQVTVSS
modifications: left off: large carriers
B9: hC3nb1-K57: hC3nb1 with K57 ultralong CDR-H3 inserted between H74 and H75, displayed on M13 phage (protein)
VHH: QVQLVETGGGLVQAGGSLRLSCAASGSIFSLNAMGWFRQAPGKEREFVATINRSGGRTYYADSVKGRFTISRDNGTTVHQRTIKSGCPPGYKSGVDCSPGSECKWGCYAVDGRRYGGYGADSGVGSTYTHEFYVDAKNMVYLQMHSLKPEDTAIYYCAAGTGWSPQTDNEYNYWGQGTQVTVSS
modifications: left off: large carriers
B10: hC3nb1-K92: hC3nb1 with K92 ultralong CDR-H3 inserted between H74 and H75, displayed on M13 phage (protein)
VHH: QVQLVETGGGLVQAGGSLRLSCAASGSIFSLNAMGWFRQAPGKEREFVATINRSGGRTYYADSVKGRFTISRDNGSIVHQKAHTSVTCPEGWSECGVAIYGYECGRWGCGHFLNSGPNISPYVSTHKYEWYVDAKNMVYLQMHSLKPEDTAIYYCAAGTGWSPQTDNEYNYWGQGTQVTVSS
modifications: left off: large carriers
B11: 568 (protein)
CDR: TTVVQRTRKIVTCPDGYSYSEGCGKGDDCGGVHCCANGGVTCWYRHCCSTGTDTYSYEWYVD
modifications: Anti-C5 ultralong CDR-H3
B12: 542 (protein)
CDR: TTVVQRTHKTTSCPDGYHFIEPCHSGLCWREGACNGDGICANGLGRCRTVSETSTYEFYVN
modifications: Anti-C5 ultralong CDR-H3
B13: 564 (protein)
CDR: TTVHQHTRKSGSCPDGWSDCHGSCDGVGCTGSDCVRYNARGYGRHACSGYAYTYSYEFYVN
modifications: Anti-C5 ultralong CDR-H3
B14: 563 (protein)
CDR: TTVHQQTKKQKSCPDGWGHSDDCNCACSANAYACCKRDWLLPGPSCECSTYCVSHTYQWYV
modifications: Anti-C5 ultralong CDR-H3

Data on 14 molecules can be found in US20240024520A1, “AUTONOMOUS KNOB DOMAIN PEPTIDES” (UCB BIOPHARMA SRL, priority 2020, published 2024).

By Kd is commonly meant a measure of binding affinity in units of concentration.

T1 sequence (P01031 19-1676): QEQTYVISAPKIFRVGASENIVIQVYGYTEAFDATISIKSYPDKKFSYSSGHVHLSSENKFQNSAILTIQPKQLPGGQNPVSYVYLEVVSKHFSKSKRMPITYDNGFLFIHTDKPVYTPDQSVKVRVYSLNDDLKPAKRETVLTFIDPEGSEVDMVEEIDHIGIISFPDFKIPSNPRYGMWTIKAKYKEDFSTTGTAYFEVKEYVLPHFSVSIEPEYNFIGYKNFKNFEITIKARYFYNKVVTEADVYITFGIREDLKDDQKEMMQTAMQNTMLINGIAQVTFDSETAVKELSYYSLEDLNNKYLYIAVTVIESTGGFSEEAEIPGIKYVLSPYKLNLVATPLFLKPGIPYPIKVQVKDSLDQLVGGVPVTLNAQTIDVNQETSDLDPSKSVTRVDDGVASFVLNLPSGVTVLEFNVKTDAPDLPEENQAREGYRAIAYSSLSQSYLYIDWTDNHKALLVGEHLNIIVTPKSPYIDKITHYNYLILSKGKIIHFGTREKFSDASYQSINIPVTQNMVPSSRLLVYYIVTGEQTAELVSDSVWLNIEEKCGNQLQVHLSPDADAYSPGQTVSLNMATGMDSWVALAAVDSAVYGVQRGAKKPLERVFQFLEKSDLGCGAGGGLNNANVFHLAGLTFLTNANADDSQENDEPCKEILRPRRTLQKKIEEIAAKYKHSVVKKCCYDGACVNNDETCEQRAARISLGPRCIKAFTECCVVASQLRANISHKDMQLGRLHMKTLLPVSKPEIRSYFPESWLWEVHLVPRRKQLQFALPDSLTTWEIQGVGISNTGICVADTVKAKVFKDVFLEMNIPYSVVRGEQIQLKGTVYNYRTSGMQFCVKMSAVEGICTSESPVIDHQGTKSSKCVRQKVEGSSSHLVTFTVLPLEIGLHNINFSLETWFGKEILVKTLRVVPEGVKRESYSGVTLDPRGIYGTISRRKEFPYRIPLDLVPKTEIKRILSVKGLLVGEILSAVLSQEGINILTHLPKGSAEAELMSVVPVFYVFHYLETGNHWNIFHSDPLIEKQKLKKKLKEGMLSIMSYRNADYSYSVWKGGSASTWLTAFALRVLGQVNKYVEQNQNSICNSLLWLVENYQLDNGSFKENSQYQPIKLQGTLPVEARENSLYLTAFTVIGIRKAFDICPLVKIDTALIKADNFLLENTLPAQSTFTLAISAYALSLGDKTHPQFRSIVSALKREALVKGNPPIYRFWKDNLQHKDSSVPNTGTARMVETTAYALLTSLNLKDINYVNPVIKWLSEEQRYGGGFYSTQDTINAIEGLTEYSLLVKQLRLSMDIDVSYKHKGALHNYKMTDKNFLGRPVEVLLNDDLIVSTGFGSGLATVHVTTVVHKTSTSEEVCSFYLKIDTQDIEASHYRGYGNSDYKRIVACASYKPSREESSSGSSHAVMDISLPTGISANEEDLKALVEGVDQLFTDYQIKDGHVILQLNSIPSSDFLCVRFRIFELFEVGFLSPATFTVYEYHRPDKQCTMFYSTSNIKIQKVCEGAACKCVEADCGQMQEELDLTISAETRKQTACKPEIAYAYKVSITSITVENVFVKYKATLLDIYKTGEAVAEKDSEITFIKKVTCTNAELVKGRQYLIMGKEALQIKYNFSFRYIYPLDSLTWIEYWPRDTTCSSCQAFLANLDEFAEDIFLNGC

The target of the first experiment is human complement component C3 (Homo sapiens, UniProt P01024). Kind of experiment: SPR binding / counter screen on complement component C3. The conditions noted are these: Biacore, n = 3 independent experiments. From the text: The PGT121-knob domain fusion proteins were counter screened for binding to human complement component C3. C3 is the closest human homologue to C5, sharing a conserved fold and a sequence homology of 26.5%.
human complement component C3, sequence (P01024 23-1663): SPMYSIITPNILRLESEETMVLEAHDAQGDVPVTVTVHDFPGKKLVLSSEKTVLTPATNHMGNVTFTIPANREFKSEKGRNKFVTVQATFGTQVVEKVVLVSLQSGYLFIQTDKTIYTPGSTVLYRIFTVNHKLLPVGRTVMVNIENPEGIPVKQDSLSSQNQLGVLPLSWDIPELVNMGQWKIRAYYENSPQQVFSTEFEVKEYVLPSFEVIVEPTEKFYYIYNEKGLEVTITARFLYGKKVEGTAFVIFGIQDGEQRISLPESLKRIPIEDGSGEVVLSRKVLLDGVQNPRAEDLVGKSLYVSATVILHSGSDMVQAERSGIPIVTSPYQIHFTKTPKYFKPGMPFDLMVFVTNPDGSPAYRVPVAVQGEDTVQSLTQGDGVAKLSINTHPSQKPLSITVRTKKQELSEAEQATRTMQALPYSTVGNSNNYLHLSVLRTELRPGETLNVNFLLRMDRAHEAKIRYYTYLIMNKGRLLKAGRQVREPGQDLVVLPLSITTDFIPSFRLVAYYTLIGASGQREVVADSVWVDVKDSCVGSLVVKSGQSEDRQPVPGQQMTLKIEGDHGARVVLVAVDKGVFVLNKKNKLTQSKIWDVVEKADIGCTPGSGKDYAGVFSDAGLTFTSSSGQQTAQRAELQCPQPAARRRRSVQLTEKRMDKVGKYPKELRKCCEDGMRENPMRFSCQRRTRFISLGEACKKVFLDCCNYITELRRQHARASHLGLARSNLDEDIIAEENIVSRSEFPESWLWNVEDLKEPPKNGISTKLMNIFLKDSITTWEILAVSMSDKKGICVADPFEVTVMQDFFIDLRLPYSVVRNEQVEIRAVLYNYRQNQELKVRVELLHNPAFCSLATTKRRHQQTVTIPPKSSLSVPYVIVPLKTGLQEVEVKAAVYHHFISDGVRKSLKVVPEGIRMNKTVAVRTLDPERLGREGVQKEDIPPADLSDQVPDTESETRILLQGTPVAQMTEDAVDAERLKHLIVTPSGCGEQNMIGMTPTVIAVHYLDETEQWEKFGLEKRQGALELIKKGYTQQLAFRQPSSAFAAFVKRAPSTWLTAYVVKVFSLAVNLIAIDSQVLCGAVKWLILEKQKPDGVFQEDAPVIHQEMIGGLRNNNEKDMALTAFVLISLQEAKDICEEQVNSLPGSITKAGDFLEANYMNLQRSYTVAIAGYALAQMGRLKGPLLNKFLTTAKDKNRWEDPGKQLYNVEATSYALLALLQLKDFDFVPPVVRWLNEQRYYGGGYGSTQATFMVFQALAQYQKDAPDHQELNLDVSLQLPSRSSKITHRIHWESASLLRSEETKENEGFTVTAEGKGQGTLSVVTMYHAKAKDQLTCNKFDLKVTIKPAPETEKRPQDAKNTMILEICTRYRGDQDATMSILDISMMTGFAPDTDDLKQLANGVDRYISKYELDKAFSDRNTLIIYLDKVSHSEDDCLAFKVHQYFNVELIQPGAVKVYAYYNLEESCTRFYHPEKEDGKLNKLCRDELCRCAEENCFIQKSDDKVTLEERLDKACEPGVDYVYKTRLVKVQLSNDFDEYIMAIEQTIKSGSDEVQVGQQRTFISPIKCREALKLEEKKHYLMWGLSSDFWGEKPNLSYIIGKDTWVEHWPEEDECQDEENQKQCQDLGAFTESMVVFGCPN
We measured binding to C3 and C5 by SPR multi-cycle kinetics and we report full binding kinetics and equilibrium dissociation constants (KD) for binding to both proteins.
On the technique in general: SPR reads the build-up and loss of mass on a sensor chip optically.
As to B1, the affinity, expressed as Kd, was 1.51 nM and the “Mean Kon” value stood at 7.32E+05.

The experiment is the same for the next values; noted with them: Biacore, n = 3 independent experiments, in 1/s.
Turning to B1, the “Mean Koff” value is listed as 2.01E−04.

The next experiment concerns the target T1, C5 (Homo sapiens, UniProt P01031). Put plainly: Biacore (SPR) single-cycle kinetics on immobilised C5. Type of experiment: binding. Particulars: C5 binding, Biacore, n = 3 independent experiments. The procedure: Binding to C5 was measured using surface plasmon resonance (SPR) single-cycle kinetics as described below.
Biacore single-cycle kinetics. Using a Biacore 8K (GE Healthcare), C5 was immobilized on a CM5 chip by amine coupling. Flow cells were activated using EDC/NHS (flow rate, 10 μL/min; contact time, 30 s). C5, at 1 μg/mL in pH 4.5 Sodium-acetate buffer, was immobilized on flow cell two only (flow rate, 10 μL/min; contact time, 420 s). Finally, ethanolamine was applied to both flow cells (flow rate, 10 μL/min; contact time, 420 s). A final immobilization level of approximately 2,000 response units was obtained.
Single-cycle kinetics were measured using titrations in HBS-EP buffer. A high flow rate of 40 μL/min was used, with a contact time of 230 s and a dissociation time of 900 s. Binding to the reference surface was subtracted, and the data were fitted to a single-site binding model using Biacore evaluation software.
We measured individual rate constants (kon and koff) and equilibrium dissociation constants (KD) for knob domain peptides binding to C5 by the Biacore single-cycle kinetics method described above.
We used SPR single cycle kinetics to measure binding to human C5 protein.
In the case of B2, the “Mean Kon” value is 4.52E+05.

For B3, the “Mean Kon” value was 2.85E+05.

As to B1, the “Mean Kon” value was found to be 1.76E+05.

On to B4, for which the “Mean Kon” value came to 6.18E+05.

As to B5, the “Mean Kon” value came out at 2.37E+05.

Staying with this experiment, now noted: C5 binding, Biacore, n = 3 independent experiments; in 1/s.
In the case of B2, the “Mean Koff” value is given as 1.19E−04.

Consider B3, for which the “Mean Koff” value is on record as 9.09E−05.

For B1, the “Mean Koff” value is 1.48E−04.

Regarding B4, the “Mean Koff” value is on record as 1.18E−04.

With B5, the “Mean Koff” value is on record as 1.37E−04.

In another experiment the target is T1, C5.
Assay: not given
The conditions noted are these: C5 coated directly and biotinylated C5 captured on streptavidin; OD 630 nm.
As for B6, the “binding to human C5 (phage ELISA)” value is recorded as “No cross-reactivity to C5 protein was observed”.

As for B7, the “binding to human C5 (phage ELISA)” value was “did not bind”.

As to B8, the “binding to human C5 (phage ELISA)” value is given as “displayed binding to human C5”.

For the molecule B9, the “binding to human C5 (phage ELISA)” value is “displayed binding to human C5”.

For the molecule B10, the “binding to human C5 (phage ELISA)” value is given as “displayed binding to human C5”.

In a further experiment the target is T1, C5. Put plainly: Monoclonal phage screening ELISA, human C5. Type of experiment: binding. Particulars: anti-C5 ultralong CDR-H3; binder = OD>0.2 AU. The procedure:
For the C5 libraries, a single round of enrichment was performed with either human or rat C5 protein. […] Phage were blocked for 30 minutes. Biotinylated antigen was added to the blocked phage at a concentration of 100 nM and incubated at room temperature with mixing.
Colonies were picked into a 96-well culture plate containing selective medium 2TY supplemented with 1% Glucose and 100 μg/ml Carbenicillin and was incubated at 37° C. until wells reached mid-log phase of growth prior to addition of M13K07 helper phage. The block was incubated without shaking for 1 hour to achieve infection and phage production using continued culture in selective media supplemented with 50 μg/ml Kanamycin and 100 μg/ml Carbenicillin.
Binding to antigen was assessed by monoclonal phage ELISA, 96-well flat bottom Nunc MaxiSorp plates (Thermofisher) were coated with a 2.5 μg/ml solution of human, mouse, or rat serum albumin, human C5 or mouse C5 diluted with PBS, and left overnight at 4° C. Negative control plate and Anti-myc tag plate were also prepared.
Monoclonal phage rescue supernatants were blocked with an equal volume of a 2% milk (w/v) in PBS, for serum albumin proteins, or 2% BSA and 2% milk (w/v) in PBS solution. The coating solution was removed from coated Nunc plates and each plate was blocked with 1% BSA in PBS (for C5 libraries) or 1% milk powder (for albumin library). Both phage and Nunc plates were blocked for 1 hour at room temperature. Nunc plates were washed using a 96-well microplate washer (BioTek) with a PBS solution contain 0.1% Tween20 (Sigma Aldrich). 100 of blocked phage solution was added to each well of Nunc MaxiSorp plate and left shaking at room temperature for 1 hour. Plates were washed and dried as previously described. 100 of an Anti-M13-Horse radish peroxidase conjugated antibody (GE Healthcare) diluted (1:5,000) in a 1% BSA or milk solution was added to each well and left shaking at room temperature for 1 hour. Plates were washed again and 50 μL of TMB solution (Merck Millipore) was added to each well. Plates were left shaking for 10 minutes. Absorbance was measured at 630 nm and 490 nm. Binding signals were obtained where Absorbance at 630 nm was >3-times the signal upon irrelevant antigen.
By monoclonal phage ELISA the following ultralong CDR-H3 sequences were identified as binders (OD>0.2 AU): […]
On the technique in general: ELISA stands for enzyme-linked immunosorbent assay.
B11: the Specificity entry is reported as “Human”.

Consider B12, for which the Specificity entry is given as “Human”.

On to B13, for which the Specificity result is “Human”.

As to B14, the Specificity entry was “Human”.

For a further experiment, the target named is C3 protein (Homo sapiens, UniProt P01024).
C3 protein, sequence (P01024 23-1663): as above
Assay: not given
Particulars: C3 coated directly and biotinylated C3 captured on streptavidin; OD 630 nm.
Turning to B6, the “binding to human C3 (phage ELISA)” value was “binding to human C3”.

Take B7: the “binding to human C3 (phage ELISA)” value is given as “did not bind”.
